Assays:
Assay type in all cases: biochemical
[1] = In vitro transglycosylation at C-20, CK as glycosyl acceptor, UDP-glucose as donor; conditions: crude enzyme (E. coli lysate supernatant); TLC/HPLC, FIG. 2, 3, 12, 16
Description: (§1) Cell lysate of recombinant E. coli with empty vector pET28a was used as a control.
As shown in FIG. 16: Protopanaxadiol Ginsenoside CK is used as a glycosyl acceptor, and UDP-glucose is used as a glycosyl donor.

[2] = In vitro transglycosylation at C-20, Rd as glycosyl acceptor, UDP-glucose as donor; conditions: crude enzyme (E. coli lysate supernatant); TLC/HPLC, FIG. 2, 3, 11
Description: as §1

[3] = In vitro transglycosylation at C-3, Rh2 as glycosyl acceptor, UDP-glucose as donor; conditions: crude enzyme (E. coli lysate supernatant); TLC, FIG. 13, FIG. 15
Description: as §1

[4] = In vitro transglycosylation at C-6, Rg1 as glycosyl acceptor, UDP-xylose as donor; conditions: crude enzyme (E. coli lysate supernatant); TLC and HPLC, FIG. 7-9

Molecule | product formation from CK and UDP-glucose (Gypenoside LXXV) [1] | product formation from Rd and UDP-glucose (Rb1) [2] | product formation from Rh2 and UDP-glucose (Rg3) [3] | product formation from Rg1 and UDP-xylose (notoginsenoside R1) [4]
PNUGT29-8: Panax notoginseng glycosyltransferase, 447 amino acids, SEQ ID NO: 53 (protein, Panax notoginseng) MDIEKGRISIVMLPFLAHGHISPFFELAKHLSKRNCNIFLCSTPINLSSIKNRVSDKDSSASIKLVELHLPSSPDLPPQYHTTNGLPSHLMVPLKNAFETVGPTFSEILKTLDPDLLIYDFNPSWAPEIALSHNIPAVYFLTSAAATSSVALRALKNPGEKYPFPDFYDNSNITPEPPSADKMKLFHDFVACFKRSCDIILIKSFRELEGKYIDLLSTLSKKTLVPVGPLVQDPLGHDEDPKTGHLINWLDKRAESTVVFVCFGSEYFPSNEELEEVAIGLEISMVNFILAVRFLEGEKKGVLPEGFVQRVGDRGLVVEGWAPQARILGHSSTGGFVSHCGWSSIMESVKFGVPVIAMARHLDQPLNAKLAAGVGVGMEVVRDENGKYKREAIAEVIRKVVMEKNGEVIRRKARELSEKMKETGEQEIGRAVEELVQICKMKKDAQY | can catalyze the extension of a glucosyl at the C-20 glycosyl to generate Gypenoside LXXV | can catalyze the extension of a glucosyl at the C-20 glycosyl of Rd to generate Rb1 | can catalyze the extension of a glucosyl at the C-3 glycosyl of Rh2 to generate Rg3 | –
PNUGT29-9: Panax notoginseng glycosyltransferase, 447 amino acids, SEQ ID NO: 55 (protein, Panax notoginseng) MDIEKGRISIVMLPFLAHGHISPFLELAKHLSKRNCNIFLCSTPINLSSIKNRVSDKDSSASIKLVELHLPSSPDLPPQYHTTNGLPSHLMVPLKNAFETVGPTFSEILKTLDPDLLIYDFNPSWAPEIALSHNIPAVYFLTSAAATSSVALRALKNPGEKYPFPDFYDNSNITPEPPSADKMKLFHDFVACFKRSCDIILIKSFRELEGKYIDLLSTLSKKTLVPVGPLVQDPLGHDEDPKTGHLINWLDKRAESTVVFVCFGSEYFPSNEELEEVAIGLEISMVNFILAVRFLEGEKKGVLPEGFVQRVGDRGLVVEGWAPQARILGHSSTGGFVSHCGWSSIMESVKFGVPVIAMARHLDQPLNAKLAAEVGVGMEVVRDENGKYKREAIAEVIRKVVMEKNGEVIRRKARELSEKMKETGEQEIGRAVEELVQICKMKKDAQY | can catalyze the extension of a glucosyl at the C-20 glycosyl to generate Gypenoside LXXV | can catalyze the extension of a glucosyl at the C-20 glycosyl of Rd to generate Rb1 | can catalyze the extension of a glucosyl at the C-3 glycosyl of Rh2 to generate Rg3 | –
GT29-4: Ginseng UDP-glycosyltransferase, 446 amino acids, SEQ ID NO: 12 (protein, misc_feature - GT29-4; Panax ginseng) MDNQEGRISIALLPFLAHGHISPFFELAKHLSKRNCNIFLCSTPINLSSIKNRISDKDSSASIKLVELHLPSSPDLPPHYHTTNGLPSHLMVPLRNAFETAAPTFSEILKTLNPDLLIYDFNPSWAPEIASSHNIPAVCFIIGGAASFSMSLHSFKNPGEKYPFLDFDDNSNITPEPPSADNMKLLLDFMTCFERSCDIILIKSFRELEGKYFDFYSTLSDKTLVPVGPLVQDPMGHNEDPKTEQFINWLDKRAESTVVFVCFGSEYFLSNEELEEVAIGLEISMVNFIWAVRLIEGEKKGVLPEGFVQRVGDRGLVVEGWAPQARILGHSSTGGFVSHCGWSSITESMKFGVPVIAMARHLDQPLNGKLAAEVGVGMEVVRDENGKYKREGIAEVIRKVVVEKSGEVMRRKARELSEKMKEKGEEEIDRAVEELVQICKKKKDAQ | – | – | – | can catalyze the formation of Notoginsenoside RI

— patent publication US12356911B2, “Group of UDP-glycosyltransferase for catalyzing carbohydrate chain elongation and application thereof” (GSYNBIOT (SHANGHAI) CO., LTD, priority 2017, dated 2025)
